Test results reported in patent US6429014B1, “Monoterpene synthases from grand fir (Abies grandis)” (Washington State University Research Foundation, priority 1997, dated 2002).

Experiment: Monoterpene synthase assay and product identification with extracts of E. coli expressing Grand fir cDNA clones (Example 3)
Type: biochemical
Procedure: For expression, bacterial strains E. coil XLOLR/pAG3.18, E. coil XLOLR/pAG3.48, E. coli XL1-Blue/pGAG2.2, E. coli XL1-Blue/pGAG3.18, and E. coil BL21(DE3)/pSBAG10were grown to A600=0.5 at 37° C. in 5 ml of LB medium (Sambrock, J., Fritsch, E. F., and Maniatis, T. (1989) Molecular Cloning: A Laboratory Manual, 2d Ed., Cold Spring Harbor Laboratory, Cold Spring Harbor, N.Y.) supplemented with 100 μg ampicillin/ml or 30 μg kanamycin/ml as determined by the vector. Cultures were then induced by addition of 1 mM isopropyl-1-thio-β-D-galactopyranoside and grown for another 12 h at 20° C. Cells were harvested by centrifugation (2000×g, 10 min) and resuspended in either 1 ml monoterpene synthase assay buffer [50 mM Tris/HCl (pH 7.5), 500 mM KCl, 1 mM MnCl2, 5 mM dithiothreitol, 0.05% (w/v) NaHSO3 and 10% (v/v) glycerol], 1 ml sesquiterpene synthase assay buffer [10 mM dibasic potassium phosphate, 1.8 mM monobasic potassium phosphate (pH 7.3), 140 mM NaCl, 10 mM MgCl2, 5 mM dithiothreitol, 0.05% (w/v) NaHSO3 and 10% (v/v) glycerol], or 1 ml diterpene synthase assay buffer [30 mM Hepes (N-2-hydroxyethylpiperazine-N-′2-ethanesulfonic acid, pH 7.2), 7.5 mM MgCl2, 5 mM dithiothreitol, 10 µM MnCl2, 0.05% (w/v) NaHSO3 and 10% (v/v) glycerol].
Cells were disrupted by sonication (Braun-Sonic 2000 with microprobe at maximum power for 15 seconds at 0-4° C.), the homogenates were cleared by centrifugation (18,000×g, 10 min), and 1 ml of the resulting supernatant was assayed for monoterpene synthase activity with 2.5 μM of [1-^3H]geranyl diphosphate, for sesquiterpene synthase activity with 3.5 μM [1-^3H]farnesyl diphosphate, or for diterpene synthase activity with 5 μM [1- ^3H]geranylgeranyl diphosphate following standard protocols (Croteau, R., and Cane, D. E. (1985) Methods Enzymol. 110:383-405; LaFever, R. E., Stofer Vogel, B., and Croteau, R. (1994) Arch. Biochem. Biophys. 313:139-149; Dehal, S. S., and Croteau, R. (1988) Arch. Biochem. Biophys. 261:346-356). In the case of the monoterpene synthase and sesquiterpene synthase assays, the incubation mixture was overlaid with 1 ml pentane to trap volatile products. In all cases, after incubation at 31° C. for 2 h, the reaction mixture was extracted with pentane (3×1 ml) and the combined extract was passed through a 1.5 ml column of anhydrous MgSO4 and silica gel (Mallinckrodt 60 Å) to provide the terpene hydrocarbon fraction free of oxygenated metabolites. The columns were subsequently eluted with 3×1 ml of ether to collect any oxygenated products, and an aliquot of each fraction was taken for liquid scintillation counting to determine conversion rate.
Product Identification—To obtain sufficient product for analysis by radio-GLC (gas liquid chromatography), chiral capillary GLC and GLC-MS (mass spectrum/spectrometry), preparative-scale enzyme incubations were carried out. Thus, the enzyme was prepared from 50 ml of cultured bacterial cells by extraction with 3 ml of assay buffer as above, and the extracts were incubated with excess substrate overnight at 31° C. The hydrocarbon fraction was isolated by elution through MgSO4-silica gel as before, and the pentane eluate was concentrated for evaluation by capillary radio-GLC as described (Croteau, R., and Satterwhite, D. M. (1990) J. Chromatogr. 500:349-354), by chiral column capillary GLC (Lewinsohn, E., Savage, T. J., Gijzen, M., and Croteau, R. (1993) Phytochem. Anal. 4:220-225), and by combined GLC-MS [Hewlett-Packard 6890 GC-MSD with cool (40° C.) on-column injection, detection via electron impact ionization (70 eV), He carrier at 0.7 psi., column:0.25 mm i.d.×30 m fused silica with 0.25 μm film of 5MS (Hewlett-Packard) programmed from 35° C. (5 min hold) to 230° C. at 5° C./min].

B1: AG3.18: recombinant (−)-pinene synthase from Grand fir encoded by cDNA clone AG3.18 (SEQ ID NO:3; protein SEQ ID NO:4) (protein, listed as Abies grandis)
chain: MALVSTAPLASKSCLHKSLISSTHELKALSRTIPALGMSRRGKSITPSISMSSTTVVTDDGVRRRMGDFHSNLWDDDVIQSLPTAYEEKSYLERAEKLIGEVKNMFNSMSLEDGELMSPLNDLIQRLWIVDSLERLGIHRHFKDEIKSALDYVYSYWGENGIGCGRESVVTDLNSTALGLRTLRLHGYPVSSDVFKAFKGQNGQFSCSENIQTDEEIRGVLNLFRASLIAFPGEKIMDEAEIFSTKYLKEALQKIPVSSLSREIGDVLEYGWHTYLPRLEARNYIQVFGQDTENTKSYVKSKKLLELAKLEFNIFQSLQKRELESLVRWWKESGFPEMTFCRHRHVEYYTLASCIAFEPQHSGFRLGFAKTCHLITVLDDMYDTFGTVDELELFTATMKRWDPSSIDCLPEYMKGVYIAVYDTVNEMAREAEEAQGRDTLTYAREAWEAYIDSYMQEARWIATGYLPSFDEYYENGKVSCGHRISALQPILTMDIPFPDHILKEVDFPSKLNDLACAILRLRGDTRCYKADRARGEEASSISCYMKDNPGVSEEDALDHINAMISDVIKGLNWELLKPDINVPISAKKHAFDIARAFHYGYKYRDGYSVANVETKSLVTRTLLESVPL
prenyl diphosphate substrate utilized (geranyl, farnesyl, geranylgeranyl diphosphate tested) (cell-free extract of induced E. coli, tritium labeled substrates): only geranyl diphosphate was utilized | α-pinene share of product mixture from geranyl diphosphate (cell-free extracts of E. coli): 42% | β-pinene share of product mixture from geranyl diphosphate (cell-free extracts of E. coli): 58% | monoterpene products formed from geranyl diphosphate (radio-GLC, GLC-MS, chiral GLC): No other monoterpene co-products were detected
